Reference: the DeepSol protein solubility set

Assay: soluble on expression in E. coli; label from the status in PepcDB or PDB records

For “MSRNLDSPVQTQMAVAVFKTPLTGASKMEGKQHHKHQHLQRQSSGRRVFVQTETGCVLGMELDRSDNVHTVKRRLQIALNFPTEESSLTYGDMVLTNDLSAVRNDSPLLLKRNFMHRSSSTPCLSPTGRDLQQKDRSGPIEILGHSDCFSIVKHMVKDIVKAMKMGVEPLPVHSGLGGAYYFRNKRGESVAIVKPTDEEPFAPNNPKGFVGKALGQPGLKSSVRVGETGFREVAAYLLDYGRFANVPPTALVKITHSVFNVNDGVKGNKPREKKLVSKIASFQKFVAHDFDASDHGTSSFPVTSVHRIGILDIRIFNTDRHGGNLLVKKLDGVGMFGQVELIPIDHGLCLPETLEDPYFEWIHWPQASLPFSDEEVDYIQSLDPVKDCDMLRRELPMIREACLRVLVLCTIFLKEASAYGLCLAEIGEMMTREFRPGEEEPSELEVVCIEAKRSVTERDVFSPRSDVVGEAEFQFDLDCDDLESVYSSKIQLTDDYFTKNPFSNGRSSLGKLEESIKEEEEDEEEEEDKTENTVPMIIMKDSFFSSAAFHDKAPSLSKLSTSMKNTHLSDTTRKNPKPLTRGKSENTSSGHKSANEQLPVSASFVKVADMKEDEWVLFLERFQELLGPAFAKRKTATLSKRQRLGTSCQF”, the “soluble on expression in E. coli” value was “not soluble”.
In the case of “MGSDKIHHHHHHMLWYDSRAQRLRERSAVWAQNQKTDPDFDGLPPKYAEELQKNILGTVVLPGDPEYDTDRMLSNPRFSAYPQVIVYCEVETDVAECLRVARALSMAVVVRSGGHSTAGFSSQNGFLIDVSRMNDVCISPEALRAWVGPGTNFGKFNAKLLPYDLHTPGGACPDVCVGGYMQGGGYGFTARIFGMNCDQVEEIRVMMTDGRIVHANAELNPDLFWAVRGGTGSNFGVLLGVKYRLYRGSTFAGFSVRWSMQTDAGVQDTATSLAWLQENFMRTGAPDTMGYQMIWAFEGPEGQAKEPVLLMRGMYRGTREELQEKLAPVLALPGATLQAIYDPQQYIDLNRILLSEPYEVPEFPADMTPMPPPEAKISRYVAKPIDAAGWKALLDYFRTSPSPYTIAAMEIYGGAIARMPKGENAFFHRDVYCDLFFDVFWLTEQEKETMLAFIAGWEAAFAPHWTGQSYQNYPSPDNPGFADEYWGDTYWLLRLIKHKYDPINLLRFPQSIQPLEWHPPGPGFPPGFRGFEDPIQAIAG”, the “soluble on expression in E. coli” value was “not soluble”.
With “MLRKEEILERTSNGLSVFKHYVPGNWRIGRNFLNPLYEDNKASCNIYFDRRSGIYKMKDFGNDNYSGDCFFFVGQLKGLDCNNSMDFVEILETIDRDLGLGLATGNPIPVTRNSCRVVDNILEETPEKESKPYQFREQKFPLAELMYWQQYGITPEILELYKVCSLRDFQSVTADGTQFTYTSSVTEPMYGYKSKRYIKLYRPFSKTRFLYGGNFGDNYCFGLEQLPAKGDTLFITGGEKDVMSLAAHGFHAICFNSETVTVPPTLIYKLTFRFKHIILLYDTDKTGKESARKQEKQLEEFSVKRLLLPLSGTKEEKDISDYFKAGNTREDFLKLFIEFLDNLYSDTLIMLKSCEIDFNNPPAKAQVIISAGDVPLGTQGNLFGITGGEGTGKSNYIAAMLAGCICQPDKEVDTLGIQITANSKRKAVLLYDTEQSEVQLFKNVSNLLARAKQPDKPEELKAFCLTGMSRKERLHAIVQSMDKFYYQYGGIQLVVIDGIADLVKSANDEAESVAVIDELYRLAGIYNTCILCVLHFVPNGLKLRGHLGSELQRKAATILSIEKDEEPTQSVVKALKVRDGSPLDVPLMLFAWDKAAGMHLYKGEKPREEKEKRKEKELVCVARDIFGRQTHITYIDLCEQVAAGFGRERTYCQKLCSFHAGTGYYH” the “soluble on expression in E. coli” value was “not soluble”.
With “SGGCTALVAVSLQGKLYMANAGDSRAILVRRDEIRPLSFEFTPETERQRIQQLAFVYPELLAGEFTRLEFPRRLKGDDLGQKVLFRDHHMSGWSYKRVEKSDLKYPLIHGQGRQARLLGTLAVSRGLGDHQLRVLDTNIQLKPFLLSVPQVTVLDVDQLELQEDDVVVMATDGLWDVLSNEQVAWLVRSFLPGNQEDPHRFSKLAQMLIHSTQGKEDSLTEEGQVSYDDVSVFVIPLHSQGQESSDH” the “soluble on expression in E. coli” value was “soluble”.
For “MSLNLQSKKRAWIVGKEHYDLGNDLFSRMLDPYMQYSCAYWKDADTLEAAQQAKLKLICEKLQLQPGMRVLDIGCGWGGLSQYMATHYGVSVVGVTISAEQQKMAQTRCEGLDVSILLEDYRDLNDQFDRIVSVGMFEHVGPKNYNTYFEVVDRNLKPDGLFLLHTIGSKKTDHNVDPWINKYIFPNGCLPSVRQIAEASESHFVMEDWHNFGADYDTTLMAWHERFINAWPEIAGNYNERFKRMFSYYLNACAGAFRARDIQLWQVVFTRGVENGLRVPREGHHHHHH”, the “soluble on expression in E. coli” value was “not soluble”.
For “MGSDKIHHHHHHMVSSSAKLHDPEEGSAANFPDIDNLKIAFGQLPSGVVIVTSQGCGGEMVGATVSSFASLSFTPPLVMLGLAQSSTTLSAILDHGHFAVHVVAEPQQDIAMRFASSRADKFSDIDFKLSPSGVPILSEFDTCFHCALERAQSAGDHQLLIGRIVDVSTVERDTTPVAWFNRRFHICEPRALV”, the “soluble on expression in E. coli” value was “not soluble”.
With “GMSHSLKDFLEACETLGTLRLIVTSSAAVLEARGKIEKLFYAELAKGKYANMHTEGFEFHLNMEKITQVKFETGEAKRGNFTTYAIRFLDEKQESALSLFLQWGKPGEYEPGQVEAWHTLKEKYGEVWEPLPVQL” the “soluble on expression in E. coli” value was “soluble”.
In the case of “MSNDQLKSKLREFFDRQPDQSEKAHQDSKIFEVLYSQFLENQHCIDWNSWKFLEEKHQVTLKDLEPFDKSRFNILNKLAVIKLNGGLGTTMGCSKAKSLVEVREGYTFMDLAVLEHQKMCEAHNVDTPLYLMNSFYTDEDTKKYLAEKGYSNVKTFVQSKCPRLDAETKLPIEDENEDWGDDAWCPPGHGNIFQSLQNSGVLDQLLADGREIIFVSNIDNTGANTDLQIVQLMLDKNVDYIMECTPKTQVDVKGGTLIDIGGRMMHLEMPQVPAENLPDFCSTKVFKIFNTNNIYVNLKAVKKLLPDIKSEIIVNKKTIRSREVLQLEFSIGGCIKNFDNALCVHVERKRFRPVKNLGDLLSLRSTLCDLDHSTFKVHHNHELGAPPVISLDPSIYNSVEVVDLKFPHPLVMDNCSEFAVVGDVTFGKNVKLSGKVTVNGKTESPGVVPDGTVLKDQEYIAE”, the “soluble on expression in E. coli” value was “not soluble”.
With “MTAAATTTVSTAAAMQTAALASLYSQAAVAIINNKGDVGKALKDLGTSDTVKQIVTSALTAGALNQMGADIAQLNSKVRTELFSSTGNQTIANLGGRLATNLSNAGISAGINTAVNGGSLKDNLGNAALGALVNSFQGEAASKIKTTFSDDYVAKQFAHALAGCVSGLVQGKCKDGAIGAAVGEIVAESILGGRNPATLSDAEKHKVISYSKIIAGSVAALNGGDLEHHHHHH” the “soluble on expression in E. coli” value was “not soluble”.
For “SGAAGPSSASVKEFQNLVDQHITPFVALSKKLAPEVGNQVEQLVKAIDAEKALINTASQSKKPSQETLLELIKPLNNFAAEVGKIRDSNRSSKFFNNLSAISESIGFLSWVVVEPTPGPHVAEMRGSAEFYTNRILKEFKGVNQDQVDWVSNYVNFLKDLEKYIKQYHTTGLTWNPKGGDAKSATP”, the “soluble on expression in E. coli” value was “soluble”.
In the case of “MGSDKIHHHHHHMIIENLSQLYPKGYLSKTIGSEATYSIPVDDQFFIVNKAFLSIKEQHLLEALFPISENPTITGNHPWFSYLFQQAKLPAEGTFRMLQIQTNVTKELQAEWQFNLTKMFPDTVDCFSPSNNMYILVEEQSKNTFQQEEIQGIFLTLDTDFDCTSAVFVGNFYSSEDILRRCFHEEQRIFSEELNSSSRTTVFSLTDVALHYFTKEAMSQNVLVEYYRRLLNKDTDIQPIISALWKNQGNISSTAKDLFMHRNTLHYRLEKFFEQTGLSLKKMDDLIFCYLLLRK”, the “soluble on expression in E. coli” value was “not soluble”.
With “MSSIQGYKMKEYSMPTKRYCQTLSLKNNPILIEEYRKIHSEEKAWPEIRAGIRAVGILEMEIYILGSQLFMIIETPLDFDWEIAMDKLSNLPRQAEWEKYVSKFQDCPYLSSSAEKWKLMERMFYLYED” the “soluble on expression in E. coli” value was “not soluble”.
With “MLNKLSLLLKDAGISLTDHQKNQLIAYVNMLHKWNKAYNLTSVRDPNEMLVRHILDSIVVAPYLQGERFIDVGTGPGLPGIPLSIVRPEAHFTLLDSLGKRVRFLRQVQHELKLENIEPVQSRVEEFPSEPPFDGVISRAFASLNDMVSWCHHLPGEQGRFYALKGQMPEDEIALLPEEYQVESVVKLQVPALDGERHLVVIKANKILEHHHHHH” the “soluble on expression in E. coli” value was “not soluble”.
With “MGHHHHHHSHMFKNTFQSGFLSILYSIGSKPLQIWDKKVRNGHIKRITDNDIQSLVLEIEGTNVSTTYITCPADPKKTLGIKLPFLVMIIKNLKKYFTFEVQVLDDKNVRRRFRASNYQSTTRVKPFICTMPMRLDDGWNQIQFNLLDFTRRAYGTNYIETLRVQIHANCRIRRVYFSDRLYSEDELPAEFKLYLPVQNKAKQ” the “soluble on expression in E. coli” value was “soluble”.
